{
  "source": "patent US11147859B2",
  "about": "“Diffusion enhancing compounds and their use alone or with thrombolytics” (Diffusion Pharmaceuticals LLC, priority 2009, dated 2021)",
  "system": "rabbit small clot embolic stroke model (RSCEM)",
  "assay": "Rabbit small clot embolic stroke model (RSCEM), quantal dose-response analysis of behavior",
  "type": "in vivo, Male New Zealand white rabbits",
  "settings": "for group P50: Mean±SEM",
  "from_the_text": "Methods: This model uses rabbits and is known as RSCEM. Male New Zealand white rabbits were anesthetized using isoflurane (5% induction, 2% maintenance by facemask), the bifurcation of the right carotid artery was exposed and the external carotid was ligated just distal to the bifurcation, where a catheter was inserted into the common carotid and secured with ligatures. The incision was closed around the catheter with the distal ends left accessible outside the neck; the catheter was filled with heparinized saline and plugged with an injection cap. Rabbits were allowed to recover from anesthesia for a minimum of 2 h until they behaved normally. After that time, microdots were prepared from blood drawn from a donor rabbit and allowed to clot at 37° C., as described in detail previously. Microclots were re-suspended in PBS, then washed and allowed to settle, followed by aspiration of the supernatant and spiking of the microclots with tracer quantities of 15-μm radiolabeled microspheres. The specific activity of the particles was determined by removing an aliquot, after which appropriate volumes of PBS solution were added so that a predetermined weight of clot particles were rapidly injected through the catheter and both the syringe and catheter were flushed with 5 ml of normal saline.\nQuantal Dose-Response Analysis: For behavioral analysis, a quantal dose-response data analysis technique was used as described previously. A wide range of lesion volumes is induced to generate both normal and abnormal animals with various behavioral deficits. […] Briefly, to evaluate the quantitative relationship between numbers of clots in the brain and neurological deficits (coma or death), logistic (S-shaped) curves are fitted by computer to the quantal dose-response data (see FIGS. 1 and 2).\nThese parameters are measures of the amount of microclots (in mg) that produce neurologic dysfunction in 50% of a group of animals (P50). The P50 values are then calculated as described previously and are presented as Mean±SEM. […] The data were analyzed using the t-test. […]",
  "data": [
    {"molecule": "tPA: Tissue plasminogen activator, a protein thrombolytic agent (clot-busting drug); Genentech lots (protein, UniProt P00750 36-562, looked up) Tissue-type plasminogen …: SYQVICRDEKTQMIYQQHQSWLRPVLRSNRVEYCWCNSGRAQCHSVPVKSCSEPRCFNGGTCQQALYFSDFVCQCPEGFAGKCCEIDTRATCYEDQGISYRGTWSTAESGAECTNWNSSALAQKPYSGRRPDAIRLGLGNHNYCRNPDRDSKPWCYVFKAGKYSSEFCSTPACSEGNSDCYFGNGSAYRGTHSLTESGASCLPWNSMILIGKVYTAQNPSAQALGLGKHNYCRNPDGDAKPWCHVLKNRRLTWEYCDVPSCSTCGLRQYSQPQFRIKGGLFADIASHPWQAAIFAKHRRSPGERFLCGGILISSCWILSAAHCFQERFPPHHLTVILGRTYRVVPGEEEQKFEVEKYIVHKEFDDDTYDNDIALLQLKSDSSRCAQESSVVRTVCLPPADLQLPDWTECELSGYGKHEALSPFYSERLKEAHVRLYPSSRCTSQHLLNRTVTDNMLCAGDTRSGGPQANLHDACQGDSGGPLVCLNDGRMTLVGIISWGLGCGQKDVPGVYTKVTNYLDWIRDNMRP", "values": [
      {"measurement": "group P50", "setting": "tPA 3.3 mg/kg IV given 1 hour following embolization", "result": "2.48 ± 0.17", "unit": "mg"},
      {"measurement": "group P50", "setting": "tPA 3.3 mg/kg IV given 3 hours following embolization", "result": "1.00 ± 0.56", "unit": "mg"},
      {"measurement": "effect on behavior / P50 value (in words)", "setting": "tPA given 3 hours following embolization", "result": "ineffective"}
    ]}
  ]
}
